The target of this experiment is human CD11b/CD18 (alphaM beta2 integrin) on transfected CHO cells (human, UniProt P11215 17-1152; P05107 23-769). Description: FACS competition on CHO-CD11b cells, competitor CyaA-biotin.

The values that follow come from patent US20060159697A1 (INSTITUT PASTEUR, published 2006).

B1: CyaA 373-1706 (hemolytic moiety) (other)
chain: MGCGNSKFSPDVLETVPASPGLRRPSLGAVERQDSGYDSLDGVGSRSFSLGEVSDMAAVEAAELEMTRQVLHAGARQDDAEPGVSGASAHWGQRALQGAQAVAAAQRLVHAIALMTQFGRAGSTNTPQEAASLSAAVFGLGEASSAVAETVSGFFRGSSRWAGGFGVAGGAMALGGGIAAAVGAGMSLTDDAPAGQKAAAGAEIALQLTGGTVELASSIALALAAARGVTSGLQVAGASAGAAAGALAAALSPMEIYGLVQQSHYADQLDKLAQESSAYGYEGDALLAQLYRDKTAAEGAVAGVSAVLSTVGAAVSIAAAASVVGAPVAVVTSLLTGALNGILRGVQQPIIEKLANDYARKIDELGGPQAYFEKNLQARHEQLANSDGLRKMLADLQAGWNASSVIGVQTTEISKSALELAAITGNADNLKSVDVFVDRFVQGERVAGQPVVLDVAAGGIDIASRKGERPALTFITPLAAPGEEQRRRTKTGKSEFTTFVEIVGKQDRWRIRDGAADTTIDLAKVVSQLVDANGVLKHSIKLDVIGGDGDDVVLANASRIHYDGGAGTNTVSYAALGRQDSITVSADGERFNVRKQLNNANVYREGVATQTTAYGKRTENVQYRHVELARVGQVVEVDTLEHVQHIIGGAGNDSITGNAHDNFLAGGSGDDRLDGGAGNDTLVGGEGQNTVIGGAGDDVFLQDLGVWSNQLDGGAGVDTVKYNVHQPSEERLERMGDTGIHADLQKGTVEKWPALNLFSVDHVKNIENLHGSRLNDRIAGDDQDNELWGHDGNDTIRGRGGDDILRGGLGLDTLYGEDGNDIFLQDDETVSDDIDGGAGLDTVDYSAMIHPGRIVAPHEYGFGIEADLSREWVRKASALGVDYYDNVRNVENVIGTSMKDVLIGDAQANTLMGQGGDDTVRGGDGDDLLFGGDGNDMLYGDAGNDTLYGGLGDDTLEGGAGNDWFGQTQAREHDVLRGGDGVDTVDYSQTGAHAGIAAGRIGLGILADLGAGRVDKLGEAGSSAYDTVSGIENVVGTELADRITGDAQANVLRGAGGADVLAGGEGDDVLLGGDGDDQLSGDAGRDRLYGEAGDDWFFQDAANAGNLLDGGDGRDTVDFSGPGRGLDAGAKGVFLSLGKGFASLMDEPETSNVLRNIENAVGSARDDVLIGDAGANVLNGLAGNDVLSGGAGDDVLLGDEGSDLLSGDAGNDDLFGGQGDDTYLFGVGYGHDTIYESGGGHDTIRINAGADQLWFARQGNDLEIRILGTDDALTVHDWYRDADHRVEIIHAANQAVDQAGIEKLVEAMAQYPDPGAAAAAPPAARVPDTLMQSLAVNWR
Consider B1, for which the binding result is on record as “binds”.
